Measured values as given in the nanobody polyreactivity screen of Harvey et al. (2022).

assay: yeast display, Sf9 membrane polyspecificity reagent, FACS + sequencing; frameworks hold sequencing errors
Summary of the method: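 Galactose induction of a Saccharomyces cerevisiae BJ5465 synthetic nanobody display library ran 36–48 hours. The cells were then stained for 1 hour at 4 °C with 10% biotinylated, detergent-solubilized Sf9 membrane reagent, pulled down on streptavidin microbeads and FACS-sorted into low and high (top ~1%) gates on expression and reagent-binding fluorescence. Labels for polyreactivity follow the gate of origin.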

Sequence | polyreactivity (PSR sort gate)
QVQLVESGGGLVQAGGSLRLSCAASGRIFHSYTIGWYRPAPGNERELVAAINWSGTRTYYADSVKGRFTISRDNAKNTVYLQMNSLKPEDTAVYYCNRVGVTRSYRYDYWGQGTQVTVSS | high polyreactivity
QVQLVESGGGLVQAGGSLRLSCAASGRIFHTYAMGWYRQAPGKEREFVAAIRWSGGSTYYADSVKGRFTISRDNAKNTVYLQMNSLKPEDTAVYYCAREQVRYYSWFGYWGQGTQVTVSS | high polyreactivity
QVQLVESGGGLVQAGGSLRLSCAASGRIFHVNAMGWYRQAPGKERELVAAISTSGGRTYYADSVKGRFTISRDNAKNTVYLQMNSLKPEDTAVYYCAASLGGYGERYYYWGQGTQVTVSS | high polyreactivity
QVQLVESGGGLVQAGGSLRLSCAASGRIFHYNAMGSYRQAPVKERELVAAISTGGSTNYADSVKGRFTISRDNAKNTVYLQMNSLKPEDTAVYYCAAGPDPLGEDYWGQGTQVTVSS | low polyreactivity
QVQLVESGGGLVQAGGSLRLSCAASGRIFHYNAMGWYRQAPRKERELVAAISTGGSTNYADSVKGRFTISRDNAKNTVYLQMNSLKPEDTAVYYCAADHPVTYPTSKFDYWGQGTQVTVSS | low polyreactivity
QVQLVESGGGLVQAGGSLRLSCAASGRIFHYNDMGWYRQAPWKERELVAAISTGGSTNYADSVKGRFTISRDNAKNTVYLQMNSLKPEDTAVYYCAADHPGTYPTTKFDYWGQGTQVTVSS | low polyreactivity
QVQLVESGGGLVQAGGSLRLSCAASGRIFIAYMGWYRQAPGKERELVAAIDSGASTYYADSVKGRFTISRDNAKNTVYLQMNSLKPEDTAVYYCAADVVYDYGGMDYWGQGTQVTVSS | low polyreactivity
QVQLVESGGGLVQAGGSLRLSCAASGRIFIKNAMGWYRQAPGKERELVAAISSGSSTYYADSVKGRFTISRDNAKNTVYLQMNSLKPEDTAVYLYGSWGQGTQVTVSS | low polyreactivity
QVQLVESGGGLVQAGGSLRLSCAASGRIFILNTMGWYRQAPGKERELVAGISYSGSTYYADSVKGRFTISRDNAKNTVYSQMNSLKPVDTAVYYCAADYDAAWYNDGYYYWGQGTQVTVSS | low polyreactivity
QVQLVESGGGLVQAGGSLRLSCAASGRIFILYAMGWYRQAPGKERELVATITKSGGNTYYADSVKGRFTISRDNAKNTVYLQMNSLKPEDTAVYYCAAQGRDSTPHGYWGQGTQVTVSS | high polyreactivity
QVQLVESGGGLVQAGGSLRLSCAASGRIFINDMGWYRQAPGKERELVAAIRSDGSTNYADSVKGRFTISRDNAKNTVYLQMNSLKPEDTAVYYCNVDGYFLFVRGYEYWGQGTQVTVSS | low polyreactivity
QVQLVESGGGLVQAGGSLRLSCAASGRIFINYAMGWYRQAPGKERELVAAITTNGGSTYYADSVKGRFTISRDNAKYTVYLQMNSLKPEDTAVYYCAARRRYKMDYWGQGTQVTVSS | high polyreactivity
QVQLVESGGGLVQAGGSLRLSCAASGRIFIRNDMGWYRQAPGKERELVAVITRSGGRTYYADSVKGRFTISRDNAKNTVYLQMNSLKPEDTAVYYCAKRQAFKQAPYEYWGQGTQVTVSS | low polyreactivity
QVQLVESGGGLVQAGGSLRLSCAASGRIFISNAMGWYRQAPGKERELVAAITWIGDRTYYADSVKGRFTISRDNAKNTVYLQMNSLKPEDTAVYYCNRVTSRVSGRYSYDYWGQGTQVTVSS | high polyreactivity
QVQLVESGGGLVQAGGSLRLSCAASGRIFISYTMGWYRQAPGKDRELVAGIDSSGTSTYYADSVKGRFTISRDNAKNTVYLQMNSLKPEDTAVYYCNVDGNWKDTSTELDYWGQGTQVTVSS | low polyreactivity
QVQLVESGGGLVQAGGSLRLSCAASGRIFIVNAMGWYRQAPGKERELVAAISYRGGSTYYADSVKGRFTISRDNAKNTVYLQMNSLKPEDTAVYYCNKDSTGDGYDYWGQGTQVTVSS | low polyreactivity
QVQLVESGGGLVQAGGSLRLSCAASGRIFIYNAMGWSRQAPGKEREFVAAISSSGGSTYYADSVKGRFTISRDNAKNTVYLQMNSLKPEDTAVYYCAAGGWPYSGGWFFQPNYDYWGQGTQVTVSS | low polyreactivity
QVQLVESGGGLVQAGGSLRLSCAASGRIFKDYAMGWYRQAPGKEREFVARISSRGGRTYYADSVKGRFTISRDNAKNTVYLQMNSLKPEDTAVYYCAVTTSPYRPTKFDYWGQGTQVTVSS | high polyreactivity
QVQLVESGGGLVQAGGSLRLSCAASGRIFKGYAMGWYRQAPGKERELVASISKRGVSTYYADSVKGRFTISRDNAKNTVYLQMNSLKPEDTAVYYCNARAPGYYYTRYDYWGQGTQVTVSS | high polyreactivity
QVQLVESGGGLVQAGGSLRLSCAASGRIFKINAMGWYRQAPGKERELVAAITRSGGTTYYADSVKGRFTISRDNAKNTVYLQMNSLKPEDTAVDYCARAYSLRVVTGDYWGQGTQVTVSS | high polyreactivity
QVQLVESGGGLVQAGGSLRLSCAASGRIFKIYAMGWYRQAPGKEREFVATISSGGRTNYADSVKGRFTISRDNAKNTVYLQMNSLKPEDTAVYYCNAGARVLYETESFDYWGQGIQVTVSS | low polyreactivity
QVQLVESGGGLVQAGGSLRLSCAASGRIFKIYAMGWYRQAPGKERELVAAISGRGGSTYYADSVKGRFTISRDNAKNTVYLQMNSLKPEDTAVYYCAAVGYGFSAYSTYDYWGQGTQVTVSS | high polyreactivity

Sequence | polyreactivity (PSR sort gate)
QVQLVESGGGLVQAGGSLRLSCAASGRIFKKNAMGWYRQAPGKERELVAAIRGSGDSTFYADSVKGRFTISRDNAKNTVYLQMNSLKPEDTAVYYCAAGDVPRRIYLVYVGYLLDYWGQGTQVTVSS | low polyreactivity
QVQLVESGGGLVQAGGSLRLSCAASGRIFKKNAMGWYRQAPGKERELVAAISARGGSTYYADSVKGRFTISRDNAKNTVYLQMNSLKPEDTAVYYCAADEVDESIHYYTFDYWGQGTQVTVSS | high polyreactivity
QVQLVESGGGLVQAGGSLRLSCAASGRIFKKNAMGWYRQAPGKERELVASITRGASTNYADSVKGRFTISRDNAKNTVYLQMNSLKPEDTAVYYCAAVITLNGDGPPSDYWGQGTQVTVSS | low polyreactivity
QVQLVESGGGLVQAGGSLRLSCAASGRIFKKYAMGWYRQAPGKERELVATISSGGSTYYADSVKGRFTISRDNSKNTVYLQMNSLKPEDTAVYYCARREYVRRDYFVTTYDYWGQGTQVTVSS | low polyreactivity
QVQLVESGGGLVQAGGSLRLSCAASGRIFKLNAMGWYRQAPGKERELVAAITRGGRTYYADSVKGRFTISRDNAKNTVYLQMNSLKPEDTAVYYCNKKTYQQTYKYDYWGQGTQVTVSS | high polyreactivity
QVQLVESGGGLVQAGGSLRLSCAASGRIFKLYAMGWYRQEPGKVRELVASITWGGGSTNYADSVKGRFTISRDNAKNTVYLQMNSLKQEDTAVYYCAAVYSKFAVFWEYDYWGQGTQVTVSS | low polyreactivity
QVQLVESGGGLVQAGGSLRLSCAASGRIFKNYAMGWYRQAPGKERELVAAISWSGGRTYYADSVKGRFTISRDNAKNTVYLQMNSLKPEDTAVYYCAASIRTGYRYGYWGQGTQVTVSS | high polyreactivity
QVQLVESGGGLVQAGGSLRLSCAASGRIFKQYTMGWYRQAPGKERELVAAITSSGAGTFYADSVKGRFTISRDNAKNTVYLQMNSLKPEDTAVYYCAASWSRRDRGFDYWGQGTQVTVSS | high polyreactivity
QVQLVESGGGLVQAGGSLRLSCAASGRIFKRNAMGWYRQAPGKERELVAAINWSGGSTYYADSVKGRFTISRDNAKNTVYLQMNSLKPEDTAVYYCAALRVQGDYDYWGQGTQVTVSS | high polyreactivity
QVQLVESGGGLVQAGGSLRLSCAASGRIFKRYAMGWYRQAPGKERELVAAITRSGGSMYYADSVKGRFTISRDNAKNTVYLQMNSLKPEDTAVYYCNKVYGPHPERAVYYEGDYWGQGTQVTVSS | high polyreactivity
QVQLVESGGGLVQAGGSLRLSCAASGRIFKRYDMGWYRQAPGKERELVAAITGTGGSTYYADSVKGRFTISRDNAKNTVYLQMNSLKPEDTAVYYCAARLYNTYSGFAFGYWGQGTQVTVSS | high polyreactivity
QVQLVESGGGLVQAGGSLRLSCAASGRIFKRYDMGWYRQAPWKERELVAAITGTGGSTYYADSVKGRFTISRDNAKNTVYLQMNSLKPEDTAVYYCAARLYNTYSGFAFGYWGQGTQVTVSS | high polyreactivity
QVQLVESGGGLVQAGGSLRLSCAASGRIFKSYAMGWYRQAPGKERELVASISYTGGSTYYADSVKGRFTISRDNAKNTVYLQMNSLKPEDTAVYYCAAKRVRSAGSYGYWGQGTQVTVSS | low polyreactivity
QVQLVESGGGLVQAGGSLRLSCAASGRIFKVYAMGWYRQAPGKERELVASIRWNTGSTYYADSVKGRFTISRDNAKNTVYLQMNSLKPEDTAVYYCNARGYYQGRYGYWGQGTQVTVSS | high polyreactivity
QVQLVESGGGLVQAGGSLRLSCAASGRIFKVYAMGWYRQAPGKERELVAVINGGGSTNYADSVKGRFTISRDNAKNTVYLQMNSLKPEDTAVYYCATEGYGHGGETDGGVYSDLGYWGQGTQVTVSS | low polyreactivity
QVQLVESGGGLVQAGGSLRLSCAASGRIFKWYAMGWYRQAPGKERELVAVITVSGGSTTYADSVKGRFTISLDNAKNTVYLQMNSLKQEDTAVYYCNAVYYRSRFGTSIRYDYWGQGTQVTVSS | high polyreactivity
QVQLVESGGGLVQAGGSLRLSCAASGRIFKYYAMGWYRQAPGKERELVAAITRGGSTNYADSVKGRFTISRDNASNTVYLQMTSLKPEDTAVYYCAVVTVRNHRMDYWGQGTQVTVSS | low polyreactivity
QVQLVESGGGLVQAGGSLRLSCAASGRIFKYYAMGWYRQAPGKERELVAAITSGGSTYYADSVKGRFTISRDNAKNTVYLQMNSLKPEDTAVYYCNADGYLSYAFDYWGQGTQVTVSS | low polyreactivity
QVQLVESGGGLVQAGGSLRLSCAASGRIFKYYAMGWYRQAPGKERELVARISSSGGSTYYADSVKGRFTISRDNAKNTVYLQMNSLKPEDTAVYYCNARYYSTKYFLGDYWGQGTQVTVSS | high polyreactivity
QVQLVESGGGLVQAGGSLRLSCAASGRIFKYYAMGWYRQAPGTERELVAAITSGGSTYYADSVKGRFTISRDNAKNTVYLQMNSLKPEDTAVYYCNADGYLSYAFDYWGQGTQVTVSS | low polyreactivity
QVQLVESGGGLVQAGGSLRLSCAASGRIFKYYGMGWYRQAPGKERELVAAITRGDSTNYADSVKGRFTISRDNAKNTVYLQMNSLKPEDTAVYYCNVGTRRGYDYWGQGTQVTVSS | high polyreactivity
